Measured values as given in US20140017242A1, “ANTI-BRADYKININ B2 RECEPTOR (BKB2R) MONOCLONAL ANTIBODY” (Diamedica, Inc., priority 2010, published 2014).
“And” between values parts separate entries of the source, which are not always exact repeats. Equal values may be shown once.

Columns and labels:
Format in all cases: in vivo, rat
ZDF fa/fa rats [1] = assay: 21-day ZDF fa/fa study: tail cuff blood pressure and heart rate
Experimental: Animals. Male ZDF fa/fa rats were obtained from CRL (Kingston, N.Y.). Upon arrival, rats were seven weeks of age. The rats were housed individually per cage in a room with a photo cycle of 12 hours of light and 12 hours of dark and an ambient temperature of 70-72° F. and fed on regular rodent diet and water ad libitum. At the age of eleven weeks, rats were divided into six groups (Table 5) of eight rats per group based on fasting blood glucose levels. A sub-group of four rats per group was maintained in parallel to the main groups and was dosed similarly for twenty-one days for a hyperinsulinemic-euglycemic clamp study. […]
An oral glucose tolerance test (OGTT) was performed on Day 0, 7, 14 and 21 for each group of the study. […] Body weight, food and water intake were measured twice a week. Blood pressure and heart rates were monitored on Day 0, 7, 14 and 21 using a non-invasive tail cuff method (with five readings per rat taken and then averaged). […] Glycated (Glycosylated) hemoglobin (HbA1c) was measured at the end of the study. […]
Blood pressure measurements were performed using a blood pressure monitor and data acquisition software. […] The VPR sensor utilized a differential pressure transducer to non-invasively measure the blood volume in the tail, and determined systolic blood pressure, diastolic blood pressure, and heart rate. […]

ZDF fa/fa rats [2] = assay: 21-day ZDF fa/fa study: hyperinsulinemic-euglycemic clamp in sub-groups; details: after 21 days
Experimental: Animals. Male ZDF fa/fa rats were obtained from CRL (Kingston, N.Y.). Upon arrival, rats were seven weeks of age. The rats were housed individually per cage in a room with a photo cycle of 12 hours of light and 12 hours of dark and an ambient temperature of 70-72° F. and fed on regular rodent diet and water ad libitum. At the age of eleven weeks, rats were divided into six groups (Table 5) of eight rats per group based on fasting blood glucose levels. A sub-group of four rats per group was maintained in parallel to the main groups and was dosed similarly for twenty-one days for a hyperinsulinemic-euglycemic clamp study.
The test compounds 5F12G1 and MG2b-57 were administered subcutaneously once every three days.

Sprague Dawley Rats = assay: Hyperinsulinemic-euglycemic clamp in Sprague Dawley rats
Experimental: The hyperinsulinemic euglycemic clamp has been considered to as the standard in vivo technique for measuring insulin sensitivity effects of type 2 diabetes drugs. In this procedure, insulin is administered to a test animal to raise the insulin concentration, while glucose is infused to maintain euglycemia. The glucose infusion rate (GIR) needed to maintain euglycemia is a reflection of insulin action or improved insulin sensitivity. The bradykinin receptor agonist (anti-BKB2R) monoclonal antibody clone 5F12G1 was tested in a euglycemic clamp study to measure its ability to improve insulin sensitivity.
Healthy young male Sprague Dawley Rats weighing 275-300 g were used for the study (Harlan Laboratory, Indianapolis, USA). The rats were maintained in a controlled environment at a temperature of 70-72° F., humidity 30-70%, with a photo cycle of 12 hours of light and 12 hours of dark. They were provided with TEKLAD™ 2018-Global 18% diet and drinking water ad libitum. After seven days of acclimatization, rats were grouped in groups of four.
Animals were anesthetized with an intraperitoneal injection of ketamine-plus-xylazine cocktail and the right jugular vein and left carotid artery were catheterized externally through an incision in the skin flap. The catheterized animals were allowed to recover for five days. After five days of recovery, animals were fasted for six hours and a 120-minute hyperinsulimic-euglycemic clamp was applied with continuous infusion of human insulin (Humulin, Eli Lilly, Indianapolis, Ind.) at a constant rate of 4mU/kg/minute. […] Both insulin and glucose were infused through catheterized right jugular vein and blood glucose levels were monitored from the catheterized carotid artery. Arterial blood glucose levels and plasma insulin levels were measured prior to infusion at t=−120, −90, −30, −15 and 0 minutes and then at every 10 minutes for 120 minutes (t=120), using a Glucose meter (Accu-Chek™ Roche Diagnostics, Indianapolis, Ind.) and a rat insulin ELISA kit. […]

ZDF fa/fa rats [3] = assay: 21-day ZDF fa/fa study: urinary glucose (glycosuria); details: day 14

B1: 5F12G1: murine monoclonal anti-BKB2R antibody (IgG2b,κ), VH comprising SEQ ID NO:1, VL comprising SEQ ID NO:2 (antibody, listed as Mus musculus, V domains shown)
VH: EVKLEESGGGLVQPGGSMKLSCVVSGFTFSDYWMSWVRHSPEMGLEWVAEIRLKSDNYATHYAESVKGRFTISRDDSKSRLYLQINSLRGEDTGIYYCTRDYYAMEYWGQGTSVTVSS
VL: DVVMTQTPLSLPVSLGDQASISCRSSQTIVHSNGKTYLEWYLQKPGQSPKLLIYKVSNRFSGVPDRFSGSGSGTEFTLKISRVETEDLGVYYCFQASHVPYTFGGGTKLEIK
increase in systolic blood pressure from baseline (ZDF fa/fa rats [1]; 0.2 mg/kg s.c. every 3 days (highest dose), Day 0 to Day 21): 0.12+/−4.4 mm Hg
systolic, diastolic blood pressure and heart rate measurements relative to the control group MG2b-57 (ZDF fa/fa rats [1]; all 5F12G1 doses, day 21): below the control group
AUC-GIR (glucose infusion rate) in the clamp (ZDF fa/fa rats [2]; 0.04 mg/kg s.c. every 3 days): significantly higher AUC-GIR
AUC-GIR (glucose infusion rate) in the clamp (ZDF fa/fa rats [2]; 0.2 mg/kg s.c. every 3 days): significantly higher AUC-GIR
increase in total glucose infusion rate AUC compared to vehicle (Sprague Dawley Rats; 0.5 mg/kg i.m. at t=−30 min, 120-minute clamp): 179%
peak increase of glucose infusion rate compared to vehicle (Sprague Dawley Rats; 0.5 mg/kg i.m. at t=−30 min, t=60 min): 291%
Calculated Glucose Infusion Rate Area Under the Curve (Sprague Dawley Rats; 0.5 mg/kg i.m., individual animals # 1-4): 4560 mg/kg and 4317 mg/kg and 3243 mg/kg and 2685 mg/kg
urine glucose level (ZDF fa/fa rats [3]; 0.008 mg/kg s.c. every 3 days): 54 ± 11 mg/dL
urine glucose level (ZDF fa/fa rats [3]; 0.04 mg/kg s.c. every 3 days): 49 ± 6 mg/dL
urine glucose level (ZDF fa/fa rats [3]; 0.2 mg/kg s.c. every 3 days): 31 ± 2 mg/dL
